Substrate in data set [1]: CC(=O)N[C@@H]1[C@@H](O[C@H](C)C(=O)O)[C@H](O)[C@@H](CO)O[C@H]1O
In words: purified protein. The conditions noted are these: active site, MurNAc-binding site; hydrogen bonds to G67, D95, N119, D141; lactyl ether at S133, P134, L135. Further details: species or system Tannerella forsythia.

Substrate in data set [2]: CC(=O)N[C@@H]1[C@@H](O[C@H](C)C(=O)O)[C@H](O)[C@@H](CO)O[C@H]1O
Kind of data set: purified protein. The format is binding, Tannerella forsythia. Particulars: active site, very similar to MurK MurNAc site; T69, R132, A133 differ.

Usually Km stands for the substrate concentration at which the rate is half of its maximum. In general, kcat refers to the maximal rate divided by the concentration of active sites. What is called kcat/Km is the second-order rate constant that governs catalysis at low substrate concentration.

B1: MurK (murein sugar kinase) (Tannerella forsythia 92A2) (protein)
chain: MILIADSGSTKTHWNVLDRGQVVGEIFTKGMNPFFQTPEEMGREIERTLLPQLNSNRFCEVHFFGAGCIPEKVPIVRNVLKGCLDVSSLIEVDTDMLAAAKASCGRSPGIVCIMGTGSNSCFYDGEKITANVSPLGFILGDEGSGAVLGKLLIGDLLKNQMGEELKEKFLRQYELTPANIIERVYRQPFPNRFLAGISPFLAENIEHPAIHSLVLNAFKSFLTRNVMQFDYTRYKAHFIGSVAYYYKDILEEAAAATGIRTGTIVRNPMEGLRTYYSTVAETV
notes: recombinant His6-tagged protein expressed in E. coli
For B1, in data set [1], the Km worked out at 180 ± 40 µM, the kcat is 42 ± 4.2 s⁻¹ and the catalytic efficiency (kcat/Km) is 230000 ± 56000 M⁻¹ s⁻¹.

B2: K1058 (Tannerella forsythia 92A2) (protein)
chain: MKLIAESGSTKTEWSLVEGEHLIQRVFTEGLNPFFQTRREISRSIRLGLPDSFFKRKLEQVFFYGAGCTSAEKKSVVEASLVAQFKTPAYVESDLLAAARGLFQHDSGIACILGTGSNSCFYDGHVIVKNVRAGGYILGDEGSGAALGKQFLSDVLKKLAPQVLIDDFFEKYDLTPHDVMDVVYNRPFPNRFLAEQSCFLADYLRLDYVKGLLLSNLRSFFLRNVMQYDYLNYPIRFVGSVAYNYADLLHQVGKEFGVELSVVEETPMGGLIKYHAFPPDDPES
notes: as for B1
Turning to B2, in data set [2], the Michaelis-Menten constant (Km) was 28 ± 10 µM, the catalytic constant (kcat) came to 0.18 ± 0.01 s⁻¹ and the kcat/Km turned out to be 6400 ± 2900 M⁻¹ s⁻¹.
